Results: the supplement of paper PMC7125110
± gives the standard error. This sample holds only a part of the variants without activity.

B1: glmS ribozyme (parent)
chain: AUAAAAGCGCCAGAACUACAGAAAUGUAGUUGACGAGGAGGAGGUUUAUCGAAUUUUCGGCGGAUGCCUCCAAA

Assays:
Details in all cases: with glucosamine-6-phosphate
glucosamine-6-phosphate [1] = variants of: B1; assay: self-cleavage kobs at 640 uM GlcN6P; higher = faster cleavage; RNA array
How it was run: (§1)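 In situ transcription by E. coli RNA polymerase produced barcoded ribozyme variants on sequenced MiSeq chips, and a hybridised Cy3 probe tracked them at 37 °C. Glucosamine-6-phosphate was flowed in at 40 μM to 10 mM in HEPES/KCl/Mg(OAc)2 buffer. kcat and KM were taken from weighted Michaelis–Menten fits of kobs values from exponential decay fits.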

glucosamine-6-phosphate [2] = variants of: B1; assay: self-cleavage kobs at 2500 uM GlcN6P; higher = faster cleavage; RNA array
How it was run: as §1

glucosamine-6-phosphate [3] = variants of: B1; assay: self-cleavage kobs at 10000 uM GlcN6P; higher = faster cleavage; RNA array
How it was run: as §1

Variant | self-cleavage kobs at 640 uM GlcN6P (glucosamine-6-phosphate [1]) | self-cleavage kobs at 2500 uM GlcN6P (glucosamine-6-phosphate [2]) | self-cleavage kobs at 10000 uM GlcN6P (glucosamine-6-phosphate [3])
U30C U55A G60A C71A | < 1e-05 s⁻¹ | – | –
G29A C58U C67G | 0.000115 ± 2.9e-05 s⁻¹ | – | –
G35U C58A A64U | < 1e-05 s⁻¹ | < 1e-05 s⁻¹ | –
G32U C34G U69G | 8.49e-05 ± 2.2e-05 s⁻¹ | – | –
G35C A39C A52U G60C G63U | < 1e-05 s⁻¹ | < 1e-05 s⁻¹ | –
U31A G66U C70U | 0.00031 ± 6.9e-05 s⁻¹ | 0.000329 ± 6.7e-05 s⁻¹ | –
G32C A33G G35A C61A | < 1e-05 s⁻¹ | – | –
G35C G60A C71U | < 1e-05 s⁻¹ | – | –
G32A C50G | 6.29e-05 ± 2.1e-05 s⁻¹ | – | 2.9e-05 ± 1.4e-05 s⁻¹
G32C C70G | 0.000253 ± 8.1e-05 s⁻¹ | – | 2.34e-05 ± 9.6e-06 s⁻¹
G29A G38U C50G | 0.00061 ± 0.00027 s⁻¹ | – | –
U30A U54C G63A | < 1e-05 s⁻¹ | – | –
U30C G38A G44A | < 1e-05 s⁻¹ | < 1e-05 s⁻¹ | –
G29A U30G G35A A39U | < 1e-05 s⁻¹ | < 1e-05 s⁻¹ | –
U30A C50A C67A C70G | 4.38e-05 ± 1.7e-05 s⁻¹ | – | –
A33U A52G C68G C71G | 0.000207 ± 7.3e-05 s⁻¹ | 9.93e-05 ± 4e-05 s⁻¹ | –
U30A G32A G37U U49C A64U | < 1e-05 s⁻¹ | – | –
U31A C50G C61G | 0.000119 ± 4.7e-05 s⁻¹ | 0.000103 ± 3.8e-05 s⁻¹ | –
G32C G44U A64C | < 1e-05 s⁻¹ | – | < 1e-05 s⁻¹
C34G G35A G63U | < 1e-05 s⁻¹ | – | < 1e-05 s⁻¹
G35U A39U G62A | < 1e-05 s⁻¹ | < 1e-05 s⁻¹ | –
G35A A39U G51C | < 1e-05 s⁻¹ | < 1e-05 s⁻¹ | –

Variant | self-cleavage kobs at 640 uM GlcN6P (glucosamine-6-phosphate [1]) | self-cleavage kobs at 2500 uM GlcN6P (glucosamine-6-phosphate [2]) | self-cleavage kobs at 10000 uM GlcN6P (glucosamine-6-phosphate [3])
C34U C58A G59U | < 1e-05 s⁻¹ | < 1e-05 s⁻¹ | –
C34G G63A C67A | < 1e-05 s⁻¹ | < 1e-05 s⁻¹ | –
C34G C61U C70G | < 1e-05 s⁻¹ | < 1e-05 s⁻¹ | –
G29C C58U U69A | 5.92e-05 ± 2.8e-05 s⁻¹ | – | –
G29C U47C C70U | 8.05e-05 ± 1.3e-05 s⁻¹ | 0.000105 ± 2.4e-05 s⁻¹ | –
G29A G38A G43C | < 1e-05 s⁻¹ | – | –
A33G A48C C61A C67G | < 1e-05 s⁻¹ | – | < 1e-05 s⁻¹
G32A G37C A42C | < 1e-05 s⁻¹ | – | –
A36G G62A | < 1e-05 s⁻¹ | < 1e-05 s⁻¹ | < 1e-05 s⁻¹
G35U G38U G41C | < 1e-05 s⁻¹ | < 1e-05 s⁻¹ | –
G32U G41U G60U C68A | < 1e-05 s⁻¹ | – | –
U31G C50A U56G U69G | 0.000115 ± 3.6e-05 s⁻¹ | 7.11e-05 ± 1.8e-05 s⁻¹ | –
U31C A42G C70U | 0.000788 ± 0.00029 s⁻¹ | – | –
G29U A36U U69G | 0.00026 ± 0.00011 s⁻¹ | 0.000178 ± 7.3e-05 s⁻¹ | –
A36U A52G G62C C71A | < 1e-05 s⁻¹ | – | –
G35C G41U A64G | < 1e-05 s⁻¹ | – | –
U31G C58A G60C | < 1e-05 s⁻¹ | < 1e-05 s⁻¹ | –
G29U C67U C70U | 4.16e-05 ± 1.2e-05 s⁻¹ | 9.35e-05 ± 1.8e-05 s⁻¹ | –
C34G C58U C68G | 9.4e-05 ± 2.9e-05 s⁻¹ | – | –
G32C G63U U69G | 0.00126 ± 0.00029 s⁻¹ | – | –
C34A C67U | < 1e-05 s⁻¹ | < 1e-05 s⁻¹ | –
G29U A33C C34A G37A C50U U69G | 0.000251 ± 5.9e-05 s⁻¹ | – | 0.000226 ± 4.5e-05 s⁻¹

Variant | self-cleavage kobs at 640 uM GlcN6P (glucosamine-6-phosphate [1]) | self-cleavage kobs at 2500 uM GlcN6P (glucosamine-6-phosphate [2]) | self-cleavage kobs at 10000 uM GlcN6P (glucosamine-6-phosphate [3])
G32U G35U A42U U56A U57A G62U | < 1e-05 s⁻¹ | < 1e-05 s⁻¹ | –
C34U A42G C58U A64G U65G | < 1e-05 s⁻¹ | < 1e-05 s⁻¹ | –
G35A G43C C68A | < 1e-05 s⁻¹ | < 1e-05 s⁻¹ | –
A36C G43U G60U | < 1e-05 s⁻¹ | – | –
C34A G38U A53G | < 1e-05 s⁻¹ | – | –
A33G G43U C70G | < 1e-05 s⁻¹ | – | –
A36G A53U C68A C71G | 8.35e-05 ± 2e-05 s⁻¹ | – | –
G32U U46G C50G | 0.000215 ± 4.7e-05 s⁻¹ | 9.4e-05 ± 3.4e-05 s⁻¹ | –
U30A U46G C67U | 0.000117 ± 3.4e-05 s⁻¹ | 0.00027 ± 0.0001 s⁻¹ | –
A36G A39G G40U | < 1e-05 s⁻¹ | < 1e-05 s⁻¹ | < 1e-05 s⁻¹
G32U C58A C70G | 0.000218 ± 7.9e-05 s⁻¹ | 0.000221 ± 5.9e-05 s⁻¹ | –
U31A G44A C67U | 0.00323 ± 0.0014 s⁻¹ | 0.00757 ± 0.0024 s⁻¹ | 0.00871 ± 0.0018 s⁻¹
U31G U65A | 0.000295 ± 0.00011 s⁻¹ | – | 0.00166 ± 0.00049 s⁻¹
U30G A33G U57C | < 1e-05 s⁻¹ | < 1e-05 s⁻¹ | < 1e-05 s⁻¹
G35U A39C C71U | < 1e-05 s⁻¹ | < 1e-05 s⁻¹ | –
U30G C61U C71G | < 1e-05 s⁻¹ | – | –
C34A G35A U65G | < 1e-05 s⁻¹ | – | –
G35U U47G A52G C70A | 9.25e-05 ± 3.2e-05 s⁻¹ | – | –
C34G G43C A52G | < 1e-05 s⁻¹ | < 1e-05 s⁻¹ | –
G29C A33G C68G | 6.58e-05 ± 3e-05 s⁻¹ | – | –
